Data from PMC5457685, “Pellino-1 promotes lung carcinogenesis via the stabilization of Slug and Snail through K63-mediated polyubiquitination” (Cell Death and Differentiation, 2016).

Target: T1, His-tagged Pellino-1 (human, UniProt Q96FA3 1-418)
T1 construct: Pellino-1, human; Pellino-1 FL subcloned into a His6-tagged fusion plasmid; The pull-down text names only 'His-Pellino-1'; also called His-Pellino-1; source: purified His-tagged protein
T1 sequence (looked up): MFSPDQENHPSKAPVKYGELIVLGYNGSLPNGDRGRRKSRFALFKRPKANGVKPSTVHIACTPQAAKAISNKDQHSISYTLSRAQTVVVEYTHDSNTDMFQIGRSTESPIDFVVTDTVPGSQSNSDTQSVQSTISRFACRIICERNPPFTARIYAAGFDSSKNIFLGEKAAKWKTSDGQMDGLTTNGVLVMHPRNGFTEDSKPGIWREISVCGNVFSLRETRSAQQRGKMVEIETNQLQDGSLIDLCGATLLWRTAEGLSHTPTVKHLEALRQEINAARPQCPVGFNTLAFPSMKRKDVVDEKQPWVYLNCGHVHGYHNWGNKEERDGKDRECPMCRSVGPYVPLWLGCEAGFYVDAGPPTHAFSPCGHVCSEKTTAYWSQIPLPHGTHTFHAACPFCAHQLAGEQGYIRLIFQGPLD
Experiment: pull-down; GST-Slug or GST-Snail adsorbed onto glutathione beads, incubated with purified His-tagged Pellino-1; bound proteins immunoblotted
Details: both partners purified

- binding result: binds
B1: GST–Slug fusion protein (natural protein, human, UniProt O43623 1-268, looked up)
chain: MPRSFLVKKHFNASKKPNYSELDTHTVIISPYLYESYSMPVIPQPEILSSGAYSPITVWTTAAPFHAQLPNGLSPLSGYSSSLGRVSPPPPSDTSSKDHSGSESPISDEEERLQSKLSDPHAIEAEKFQCNLCNKTYSTFSGLAKHKQLHCDAQSRKSFSCKYCDKEYVSLGALKMHIRTHTLPCVCKICGKAFSRPWLLQGHIRTHTGEKPFSCPHCNRAFADRSNLRAHLQTHSDVKKYQCKNCSKTFSRMSLLHKHEESGCCVAH
notes: Slug, human; pGEX-KG vector encoding GST-tagged human Slug (gift); source: GST fusion protein (pGEX-KG vector) adsorbed onto glutathione beads
